Reference: publication PMC8234197

Experiments:
[1] = target: MsuD^ΔC–16 (MsuD with the last 16 residues of the C terminus deleted) (Pseudomonas fluorescens); assay: SEC; analytical gel filtration, Enrich SEC 650 10 × 300 column, 4 °C, 50 mM sodium phosphate, 150 mM NaCl, pH 7.2, with high-molecular-weight standards
[2] = target: MsuD^ΔC–16 (MsuD with the last 16 residues of the C terminus deleted) (Pseudomonas fluorescens)
[3] = target: alkanesulfonate monooxygenase MsuD from Pseudomonas fluorescens (wildtype) (Pseudomonas fluorescens); assay: SEC; analytical gel filtration, Enrich SEC 650 10 × 300 column, 4 °C, 50 mM sodium phosphate, 150 mM NaCl, pH 7.2, with high-molecular-weight standards
[4] = target: alkanesulfonate monooxygenase MsuD from Pseudomonas fluorescens (wildtype) (Pseudomonas fluorescens)
[5] = target: alkanesulfonate monooxygenase MsuD from Pseudomonas fluorescens (wildtype) (Pseudomonas fluorescens); assay: crystal structure; cocrystal with FMN and MS− (P6_1, four chains per asymmetric unit); unliganded and FMN- or FMN/MS−-soaked crystals (P2_1, two tetramers per asymmetric unit)

Substance	stoichiometry N [1]	sulfite formation from MS− in a coupled reaction with MsuE (DTNB assay) (µmol/min/µmol enzyme) [2]	stoichiometry N [3]	sulfite formation from MS− in a coupled reaction with MsuE (DTNB assay), wildtype under the conditions of the MsuD^ΔC–16 test (µmol/min/µmol enzyme) [4]	stoichiometry N [5]
MsuD^ΔC–16 (MsuD with the last 16 residues of the C terminus deleted) (domain or fragment)	2	0.45			
alkanesulfonate monooxygenase MsuD from Pseudomonas fluorescens (wildtype) (enzyme)			4	5.7	4
